From patent US12467929

Key:
[1] = target: recombinant UBE3A protein (Homo sapiens (Human)) (UniProt Q05086); assay: 2-step Simoa; capture GTX; UBE3A 1 ng/ml
[2] = target: recombinant UBE3A protein (Homo sapiens (Human)) (UniProt Q05086); assay: 3-step Simoa; capture GTX; UBE3A 1 ng/ml
[3] = target: recombinant UBE3A protein (Homo sapiens (Human)) (UniProt Q05086); assay: 2-step Simoa; capture GTX; UBE3A 10 ng/ml
[4] = target: recombinant UBE3A protein (Homo sapiens (Human)) (UniProt Q05086); assay: 3-step Simoa; capture GTX; UBE3A 10 ng/ml
[5] = target: recombinant UBE3A protein (Homo sapiens (Human)) (UniProt Q05086); assay: 2-step Simoa; capture Novus; UBE3A 1 ng/ml
[6] = target: recombinant UBE3A protein (Homo sapiens (Human)) (UniProt Q05086); assay: 3-step Simoa; capture GTX; UBE3A 0.1 ng/ml
[7] = target: recombinant UBE3A protein (Homo sapiens (Human)) (UniProt Q05086); assay: 3-step Simoa; capture Novus; UBE3A 1 ng/ml
[8] = target: recombinant UBE3A protein (Homo sapiens (Human)) (UniProt Q05086); assay: 2-step Simoa; capture MS 2F6; UBE3A 1 ng/ml
[9] = target: recombinant UBE3A protein (Homo sapiens (Human)) (UniProt Q05086); assay: 2-step Simoa; capture Novus; UBE3A 10 ng/ml
[10] = target: recombinant UBE3A protein (Homo sapiens (Human)) (UniProt Q05086); assay: 3-step Simoa; capture GTX; UBE3A 0.01 ng/ml
[11] = target: recombinant UBE3A protein (Homo sapiens (Human)) (UniProt Q05086); assay: 3-step Simoa; capture MS 2F6; UBE3A 1 ng/ml
[12] = target: recombinant UBE3A protein (Homo sapiens (Human)) (UniProt Q05086); assay: 3-step Simoa; capture Novus; UBE3A 10 ng/ml
[13] = target: recombinant UBE3A protein (Homo sapiens (Human)) (UniProt Q05086); assay: 2-step Simoa; capture GTX; UBE3A 0.01 ng/ml
[14] = target: recombinant UBE3A protein (Homo sapiens (Human)) (UniProt Q05086); assay: 2-step Simoa; capture MS 2F6; UBE3A 10 ng/ml
[15] = target: recombinant UBE3A protein (Homo sapiens (Human)) (UniProt Q05086); assay: 2-step Simoa; capture Novus; UBE3A 0.1 ng/ml
[16] = target: recombinant UBE3A protein (Homo sapiens (Human)) (UniProt Q05086); assay: 3-step Simoa; capture MS 2F6; UBE3A 10 ng/ml
[17] = target: recombinant UBE3A protein (Homo sapiens (Human)) (UniProt Q05086); assay: 3-step Simoa; capture Novus; UBE3A 0.1 ng/ml
[18] = target: recombinant UBE3A protein (Homo sapiens (Human)) (UniProt Q05086); assay: 2-step Simoa; capture MS 2F6; UBE3A 0.1 ng/ml
[19] = target: recombinant UBE3A protein (Homo sapiens (Human)) (UniProt Q05086); assay: 2-step Simoa; capture Novus; UBE3A 0.01 ng/ml
[20] = target: recombinant UBE3A protein (Homo sapiens (Human)) (UniProt Q05086); assay: 3-step Simoa; capture MS 2F6; UBE3A 0.1 ng/ml
[21] = target: recombinant UBE3A protein (Homo sapiens (Human)) (UniProt Q05086); assay: 3-step Simoa; capture Novus; UBE3A 0.01 ng/ml
[22] = target: recombinant UBE3A protein (Homo sapiens (Human)) (UniProt Q05086); assay: 2-step Simoa; capture MS 2F6; UBE3A 0.01 ng/ml
[23] = target: recombinant UBE3A protein (Homo sapiens (Human)) (UniProt Q05086); assay: Simoa head-to-head, Table 10; capture GTX; UBE3A 500 ng/ml

UniProt Q05086, sequence (Q05086 whole entry): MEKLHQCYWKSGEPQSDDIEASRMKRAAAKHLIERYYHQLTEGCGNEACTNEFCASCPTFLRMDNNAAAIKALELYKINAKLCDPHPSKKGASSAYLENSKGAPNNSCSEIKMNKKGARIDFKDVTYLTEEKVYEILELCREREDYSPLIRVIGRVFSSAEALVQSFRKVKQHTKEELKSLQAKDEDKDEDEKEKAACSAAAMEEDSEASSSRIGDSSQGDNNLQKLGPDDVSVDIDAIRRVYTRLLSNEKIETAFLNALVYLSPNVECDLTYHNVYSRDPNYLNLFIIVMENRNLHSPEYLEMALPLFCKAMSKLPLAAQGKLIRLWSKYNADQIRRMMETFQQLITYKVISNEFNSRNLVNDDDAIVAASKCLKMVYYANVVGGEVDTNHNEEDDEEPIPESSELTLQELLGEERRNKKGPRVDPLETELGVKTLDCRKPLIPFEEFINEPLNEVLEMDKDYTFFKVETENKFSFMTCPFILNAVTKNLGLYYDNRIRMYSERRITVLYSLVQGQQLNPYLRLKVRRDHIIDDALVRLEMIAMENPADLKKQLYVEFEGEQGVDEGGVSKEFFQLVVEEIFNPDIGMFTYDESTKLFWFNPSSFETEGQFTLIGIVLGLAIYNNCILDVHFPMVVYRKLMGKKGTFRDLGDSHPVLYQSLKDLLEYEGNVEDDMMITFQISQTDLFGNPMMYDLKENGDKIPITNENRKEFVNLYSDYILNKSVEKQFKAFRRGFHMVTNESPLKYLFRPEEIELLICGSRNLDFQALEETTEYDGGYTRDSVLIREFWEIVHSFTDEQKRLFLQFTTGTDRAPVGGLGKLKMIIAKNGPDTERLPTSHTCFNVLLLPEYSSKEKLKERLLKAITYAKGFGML

## GTX101092 (GeneTex) (antibody)
[1]
  AEB1: 0.0504
  AEB2: 0.053
  Ave AEB: 0.0517
  Signal to Background: 1.02
[2]
  AEB1: 0.0243
  AEB2: 0.0204
  Ave AEB: 0.0224
  Signal to Background: 1.05
[3]
  AEB1: 0.0957
  AEB2: 0.0942
  Ave AEB: 0.095
  Signal to Background: 1.88
[4]
  AEB1: 0.0337
  AEB2: 0.034
  Ave AEB: 0.0339
  Signal to Background: 1.59
[5]
  AEB1: 0.0503
  AEB2: 0.0488
  Ave AEB: 0.0496
  Signal to Background: 0.99
[6]
  AEB1: 0.0192
  AEB2: 0.0198
  Ave AEB: 0.0195
  Signal to Background: 0.91
[7]
  AEB1: 0.0264
  AEB2: 0.0248
  Ave AEB: 0.0256
  Signal to Background: 1.14
[8]
  AEB1: 0.0418
  AEB2: 0.0409
  Ave AEB: 0.0413
  Signal to Background: 0.62
[9]
  AEB1: 0.0616
  AEB2: 0.0585
  Ave AEB: 0.0601
  Signal to Background: 1.2
[10]
  AEB1: 0.019
  AEB2: 0.021
  Ave AEB: 0.02
  Signal to Background: 0.94
[11]
  AEB1: 0.0178
  AEB2: 0.0198
  Ave AEB: 0.0188
  Signal to Background: 1.01
[12]
  AEB1: 0.0258
  AEB2: 0.0245
  Ave AEB: 0.0252
  Signal to Background: 1.12
[13]
  AEB1: 0.0483
  AEB2: 0.0494
  Ave AEB: 0.0489
  Signal to Background: 0.97
[14]
  AEB1: 0.0412
  AEB2: 0.0418
  Ave AEB: 0.0415
  Signal to Background: 0.62
[15]
  AEB1: 0.0516
  AEB2: 0.0515
  Ave AEB: 0.0516
  Signal to Background: 1.03
[16]
  AEB1: 0.0251
  AEB2: 0.0292
  Ave AEB: 0.0271
  Signal to Background: 1.45
[17]
  AEB1: 0.0223
  AEB2: 0.0228
  Ave AEB: 0.0225
  Signal to Background: 1
[18]
  AEB1: 0.0426
  AEB2: 0.0425
  Ave AEB: 0.0426
  Signal to Background: 0.64
[19]
  AEB1: 0.0531
  AEB2: 0.0522
  Ave AEB: 0.0527
  Signal to Background: 1.05
[20]
  AEB1: 0.017
  AEB2: 0.0184
  Ave AEB: 0.0177
  Signal to Background: 0.95
[21]
  AEB1: 0.0217
  AEB2: 0.0245
  Ave AEB: 0.0231
  Signal to Background: 1.03
[22]
  AEB1: 0.0481
  AEB2: 0.0445
  Ave AEB: 0.0463
  Signal to Background: 0.69

## NB500-240 (Novus) (antibody)
[1]
  AEB1: 0.0247
  AEB2: 0.0237
  Ave AEB: 0.0242
  Signal to Background: 3.26
[2]
  AEB1: 0.0097
  AEB2: 0.0091
  Ave AEB: 0.0094
  Signal to Background: 1.54
[3]
  AEB1: 0.126
  AEB2: 0.13
  Ave AEB: 0.128
  Signal to Background: 17.3
[4]
  AEB1: 0.0356
  AEB2: 0.0426
  Ave AEB: 0.0391
  Signal to Background: 6.42
[5]
  AEB1: 0.0174
  AEB2: 0.0179
  Ave AEB: 0.0177
  Signal to Background: 1.06
[6]
  AEB1: 0.005
  AEB2: 0.0068
  Ave AEB: 0.0059
  Signal to Background: 0.97
[7]
  AEB1: 0.0125
  AEB2: 0.0145
  Ave AEB: 0.0135
  Signal to Background: 1.29
[8]
  AEB1: 0.0212
  AEB2: 0.0206
  Ave AEB: 0.0209
  Signal to Background: 1.27
[9]
  AEB1: 0.0441
  AEB2: 0.0461
  Ave AEB: 0.0451
  Signal to Background: 2.71
[10]
  AEB1: 0.0064
  AEB2: 0.0053
  Ave AEB: 0.0059
  Signal to Background: 0.96
[11]
  AEB1: 0.0095
  AEB2: 0.009
  Ave AEB: 0.0092
  Signal to Background: 1.06
[12]
  AEB1: 0.0168
  AEB2: 0.0179
  Ave AEB: 0.0173
  Signal to Background: 1.65
[13]
  AEB1: 0.0082
  AEB2: 0.0072
  Ave AEB: 0.0077
  Signal to Background: 1.04
[14]
  AEB1: 0.0437
  AEB2: 0.0449
  Ave AEB: 0.0443
  Signal to Background: 2.7
[15]
  AEB1: 0.0167
  AEB2: 0.0132
  Ave AEB: 0.0149
  Signal to Background: 0.9
[16]
  AEB1: 0.0153
  AEB2: 0.0116
  Ave AEB: 0.0134
  Signal to Background: 1.54
[17]
  AEB1: 0.014
  AEB2: 0.0114
  Ave AEB: 0.0127
  Signal to Background: 1.21
[18]
  AEB1: 0.0164
  AEB2: 0.0185
  Ave AEB: 0.0175
  Signal to Background: 1.06
[19]
  AEB1: 0.0255
  AEB2: 0.0175
  Ave AEB: 0.0215
  Signal to Background: 1.29
[20]
  AEB1: 0.0107
  AEB2: 0.0084
  Ave AEB: 0.0095
  Signal to Background: 1.1
[21]
  AEB1: 0.011
  AEB2: 0.0112
  Ave AEB: 0.0111
  Signal to Background: 1.06
[22]
  AEB1: 0.0183
  AEB2: 0.0162
  Ave AEB: 0.0172
  Signal to Background: 1.05
[23]
  AEB1: 0.282
  AEB2: 0.309
  Ave AEB: 0.296
  Signal to Background: 142
